What was measured:
[1] = tested on: RirA wild type (Rhizobium leguminosarum strain 8401); test: SPR; conditions: SPR: 10 mM Hepes, 150 mM NaCl, 0.05% Tween, pH 7.4, 20 °C, 0-125 nM dimer; EMSA: 10 mM Hepes, 50 mM NaCl, 2.5% sucrose, 2.5 mM MgCl2, 1 mM DTT, pH 7.9, on ice …
[2] = tested on: RirA N8D (Rhizobium leguminosarum strain 8401?); test: SPR; conditions: SPR: 10 mM Hepes, 150 mM NaCl, 0.05% Tween, pH 7.4, 20 °C, 0-125 nM dimer; EMSA: 10 mM Hepes, 50 mM NaCl, 2.5% sucrose, 2.5 mM MgCl2, 1 mM DTT, pH 7.9, on ice …

## fhuA IRO box 30 bp SPR oligo
[1]
  Kd: 12.8 nM
[2]
  Kd: 10.3 nM

— publication PMC10510648
